Results: the supplement of paper PMC5998384

Experiments:
HeLa Kyoto [1] = test: solubility change mitosis vs G1/S (difference of NP-40 vs SDS log2 ratios) (log2 ratio difference); higher = more soluble in mitosis
HeLa Kyoto [2] = test: melting temperature (median over replicates), in situ; higher = more thermally stable
HeLa Kyoto [3] = test: solubility in G1/S (NP-40 vs SDS abundance) (log2 ratio); higher = more soluble; conditions: cell cycle stage: G1/S
HeLa Kyoto [4] = test: thermal stability score vs G1/S (z-score of summed log2 fold changes over temperatures); higher = more thermally stable than in G1/S
[5] = cell cycle stage: early G1 (4.5 h after nocodazole release)
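For melting temperature (median over replicates), in situ in this document: HeLa Kyoto cells synchronized by double thymidine or nocodazole block, proteins quantified by TMT10plex mass spectrometry, three independent biological replicates.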
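For solubility change mitosis vs G1/S (difference of NP-40 vs SDS log2 ratios) in this document: synchronized HeLa Kyoto cells (double thymidine block for G1/S, nocodazole release for mitosis), protein amounts in NP-40 versus SDS lysates quantified by mass spectrometry, three biological replicates.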
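For solubility in G1/S (NP-40 vs SDS abundance) in this document: HeLa Kyoto cells arrested at G1/S by double thymidine block, proteins quantified by TMT10plex mass spectrometry in mild NP-40 versus SDS extracts, three biological replicates.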
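For thermal stability score vs G1/S (z-score of summed log2 fold changes over temperatures) in this document: synchronized HeLa Kyoto cells, proteins quantified by TMT10plex mass spectrometry, three biological replicates, mitosis taken 0.5 h after nocodazole release, G1/S directly after double thymidine block.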

| Substance | solubility change mitosis (log2) (HeLa Kyoto [1]) | melting temperature (HeLa Kyoto [2]; cell cycle stage: G1/S) | melting temperature (HeLa Kyoto [2]; cell cycle stage: mitosis) | solubility in G1/S (log2) (HeLa Kyoto [3]) | thermal stability score (HeLa Kyoto [4]; [5]) | thermal stability score (HeLa Kyoto [4]; cell cycle stage: mitosis) |
| --- | --- | --- | --- | --- | --- | --- |
| MKAVVQRVTRASVTVGGEQISAIGRGICVLLGISLEDTQKELEHMVRKILNLRVFEDESGKHWSKSVMDKQYEILCVSQFTLQCVLKGNKPDFHLAMPTEQAEGFYNSFLEQLRKTYRPELIKDGKFGAYMQVHIQNDGPVTIELESPAPGTATSDPKQLSKLEKQQQRKEKTRAKGPSESSKERNTPRKEDRSASSGAEGDVSSEREP [DTD1] | 0.00349 | 58.3 °C | 57.5 °C | 0.119 | 2.15 | 0.509 |
| MREIVHIQAGQCGNQIGTKFWEVISDEHGIDPAGGYVGDSALQLERINVYYNESSSQKYVPRAALVDLEPGTMDSVRSGPFGQLFRPDNFIFGQTGAGNNWAKGHYTEGAELVDAVLDVVRKECEHCDCLQGFQLTHSLGGGTGSGMGTLLISKIREEFPDRIMNTFSVMPSPKVSDTVVEPYNATLSVHQLVENTDETYCIDNEALYDICFRTLKLTTPTYGDLNHLVSATMSGVTTSLRFPGQLNADLRKLAVNMVPFPRLHFFMPGFAPLTSRGSQQYRALTVPELTQQMFDARNMMAACDPRHGRYLTVATVFRGPMSMKEVDEQMLAIQSKNSSYFVEWIPNNVKVAVCDIPPRGLKMASTFIGNSTAIQELFKRISEQFSAMFRRKAFLHWFTGEGMDEMEFTEAESNMNDLVSEYQQYQDATANDGEEAFEDEEEEIDG [TUBB6] | -0.124 | 54.8 °C | 53.8 °C | 0.0985 | -0.862 | -2.31 |
| MASLSLAPVNIFKAGADEERAETARLTSFIGAIAIGDLVKSTLGPKGMDKILLSSGRDASLMVTNDGATILKNIGVDNPAAKVLVDMSRVQDDEVGDGTTSVTVLAAELLREAESLIAKKIHPQTIIAGWREATKAAREALLSSAVDHGSDEVKFRQDLMNIAGTTLSSKLLTHHKDHFTKLAVEAVLRLKGSGNLEAIHIIKKLGGSLADSYLDEGFLLDKKIGVNQPKRIENAKILIANTGMDTDKIKIFGSRVRVDSTAKVAEIEHAEKEKMKEKVERILKHGINCFINRQLIYNYPEQLFGAAGVMAIEHADFAGVERLALVTGGEIASTFDHPELVKLGSCKLIEEVMIGEDKLIHFSGVALGEACTIVLRGATQQILDEAERSLHDALCVLAQTVKDSRTVYGGGCSEMLMAHAVTQLANRTPGKEAVAMESYAKALRMLPTIIADNAGYDSADLVAQLRAAHSEGNTTAGLDMREGTIGDMAILGITESFQVKRQVLLSAAEAAEVILRVDNIIKAAPRKRVPDHHPC [CCT2] | -0.0739 | 54.1 °C | 53.1 °C | 0.193 | -0.324 | -1.07 |
| MASEQDVRARLQRAGQEHLLRFWAELAPEPRAALLAELALLEPEALREHCRRAAEACARPHGPPPDLAARLRPLPPERVGRASRSDPETRRRWEEEGFRQISLNKVAVLLLAGGQGTRLGVTYPKGMYRVGLPSRKTLYQLQAERIRRVEQLAGERHGTRCTVPWYVMTSEFTLGPTAEFFREHNFFHLDPANVVMFEQRLLPAVTFDGKVILERKDKVAMAPDGNGGLYCALEDHKILEDMERRGVEFVHVYCVDNILVRLADPVFIGFCVLQGADCGAKVVEKAYPEEPVGVVCQVDGVPQVVEYSEISPETAQLRASDGSLLYNAGNICNHFFTRGFLKAVTREFEPLLKPHVAVKKVPYVDEEGNLVKPLKPNGIKMEKFVFDVFRFAKNFAALEVLREEEFSPLKNAEPADRDSPRTARQALLTQHYRWALRAGARFLDAHGAWLPELPSLPPNGDPPAICEISPLVSYSGEGLEVYLQGREFQSPLILDEDQAREPQLQES [UAP1L1] | -0.0981 | 52.3 °C | 53.1 °C | 0.127 | -0.582 | -0.781 |
| MVDYSVWDHIEVSDDEDETHPNIDTASLFRWRHQARVERMEQFQKEKEELDRGCRECKRKVAECQRKLKELEVAEGGKAELERLQAEAQQLRKEERSWEQKLEEMRKKEKSMPWNVDTLSKDGFSKSMVNTKPEKTEEDSEEVREQKHKTFVEKYEKQIKHFGMLRRWDDSQKYLSDNVHLVCEETANYLVIWCIDLEVEEKCALMEQVAHQTIVMQFILELAKSLKVDPRACFRQFFTKIKTADRQYMEGFNDELEAFKERVRGRAKLRIEKAMKEYEEEERKKRLGPGGLDPVEVYESLPEELQKCFDVKDVQMLQDAISKMDPTDAKYHMQRCIDSGLWVPNSKASEAKEGEEAGPGDPLLEAVPKTGDEKDVSV [CDC37] | 0.0658 | 52.1 °C | 52.6 °C | 0.24 | 0.438 | -0.732 |
| PLPP2 | -0.279 | 55 °C | 54.3 °C | -0.0273 | 0.347 | -1.64 |
| MSSVQQQPPPPRRVTNVGSLLLTPQENESLFTFLGKKCVTMSSAVVQLYAADRNCMWSKKCSGVACLVKDNPQRSYFLRIFDIKDGKLLWEQELYNNFVYNSPRGYFHTFAGDTCQVALNFANEEEAKKFRKAVTDLLGRRQRKSEKRRDPPNGPNLPMATVDIKNPEITTNRFYGPQVNNISHTKEKKKGKAKKKRLTKADIGTPSNFQHIGHVGWDPNTGFDLNNLDPELKNLFDMCGISEAQLKDRETSKVIYDFIEKTGGVEAVKNELRRQAPPPPPPSRGGPPPPPPPPHNSGPPPPPARGRGAPPPPPSRAPTAAPPPPPPSRPSVAVPPPPPNRMYPPPPPALPSSAPSGPPPPPPSVLGVGPVAPPPPPPPPPPPGPPPPPGLPSDGDHQVPTTAGNKAALLDQIREGAQLKKVEQNSRPVSCSGRDALLDQIRQGIQLKSVADGQESTPPTPAPTSGIVGALMEVMQKRSKAIHSSDEDEDEDDEEDFEDDDEWED [WASL] | -0.121 | 50.7 °C | 51.3 °C | 0.303 | 0.0343 | 1.24 |
| MAAAMVPGRSESWERGEPGRPALYFCGSIRGGREDRTLYERIVSRLRRFGTVLTEHVAAAELGARGEEAAGGDRLIHEQDLEWLQQADVVVAEVTQPSLGVGYELGRAVAFNKRILCLFRPQSGRVLSAMIRGAADGSRFQVWDYEEGEVEALLDRYFEADPPGQVAASPDPTT [DNPH1] | 0.00918 | 55.3 °C | 55.3 °C | 0.392 | -1.99 | -2.01 |
| MSSILPFTPPVVKRLLGWKKSAGGSGGAGGGEQNGQEEKWCEKAVKSLVKKLKKTGRLDELEKAITTQNCNTKCVTIPSTCSEIWGLSTPNTIDQWDTTGLYSFSEQTRSLDGRLQVSHRKGLPHVIYCRLWRWPDLHSHHELKAIENCEYAFNLKKDEVCVNPYHYQRVETPVLPPVLVPRHTEILTELPPLDDYTHSIPENTNFPAGIEPQSNYIPETPPPGYISEDGETSDQQLNQSMDTGSPAELSPTTLSPVNHSLDLQPVTYSEPAFWCSIAYYELNQRVGETFHASQPSLTVDGFTDPSNSERFCLGLLSNVNRNATVEMTRRHIGRGVRLYYIGGEVFAECLSDSAIFVQSPNCNQRYGWHPATVCKIPPGCNLKIFNNQEFAALLAQSVNQGFEAVYQLTRMCTIRMSFVKGWGAEYRRQTVTSTPCWIELHLNGPLQWLDKVLTQMGSPSVRCSSMS [SMAD2] | -0.177 | 50.5 °C | 49.9 °C | -0.0287 | 0.527 | 1.37 |
| MAPVHGDDSLSDSGSFVSSRARREKKSKKGRQEALERLKKAKAGEKYKYEVEDFTGVYEEVDEEQYSKLVQARQDDDWIVDDDGIGYVEDGREIFDDDLEDDALDADEKGKDGKARNKDKRNVKKLAVTKPNNIKSMFIACAGKKTADKAVDLSKDGLLGDILQDLNTETPQITPPPVMILKKKRSIGASPNPFSVHTATAVPSGKIASPVSRKEPPLTPVPLKRAEFAGDDVQVESTEEEQESGAMEFEDGDFDEPMEVEEVDLEPMAAKAWDKESEPAEEVKQEADSGKGTVSYLGSFLPDVSCWDIDQEGDSSFSVQEVQVDSSHLPLVKGADEEQVFHFYWLDAYEDQYNQPGVVFLFGKVWIESAETHVSCCVMVKNIERTLYFLPREMKIDLNTGKETGTPISMKDVYEEFDEKIATKYKIMKFKSKPVEKNYAFEIPDVPEKSEYLEVKYSAEMPQLPQDLKGETFSHVFGTNTSSLELFLMNRKIKGPCWLEVKSPQLLNQPVSWCKVEAMALKPDLVNVIKDVSPPPLVVMAFSMKTMQNAKNHQNEIIAMAALVHHSFALDKAAPKPPFQSHFCVVSKPKDCIFPYAFKEVIEKKNVKVEVAATERTLLGFFLAKVHKIDPDIIVGHNIYGFELEVLLQRINVCKAPHWSKIGRLKRSNMPKLGGRSGFGERNATCGRMICDVEISAKELIRCKSYHLSELVQQILKTERVVIPMENIQNMYSESSQLLYLLEHTWKDAKFILQIMCELNVLPLALQITNIAGNIMSRTLMGGRSERNEFLLLHAFYENNYIVPDKQIFRKPQQKLGDEDEEIDGDTNKYKKGRKKAAYAGGLVLDPKVGFYDKFILLLDFNSLYPSIIQEFNICFTTVQRVASEAQKVTEDGEQEQIPELPDPSLEMGILPREIRKLVERRKQVKQLMKQQDLNPDLILQYDIRQKALKLTANSMYGCLGFSYSRFYAKPLAALVTYKGREILMHTKEMVQKMNLEVIYGDTDSIMINTNSTNLEEVFKLGNKVKSEVNKLYKLLEIDIDGVFKSLLLLKKKKYAALVVEPTSDGNYVTKQELKGLDIVRRDWCDLAKDTGNFVIGQILSDQSRDTIVENIQKRLIEIGENVLNGSVPVSQFEINKALTKDPQDYPDKKSLPHVHVALWINSQGGRKVKAGDTVSYVICQDGSNLTASQRAYAPEQLQKQDNLTIDTQYYLAQQIHPVVARICEPIDGIDAVLIATWLGLDPTQFRVHHYHKDEENDALLGGPAQLTDEEKYRDCERFKCPCPTCGTENIYDNVFDGSGTDMEPSLYRCSNIDCKASPLTFTVQLSNKLIMDIRRFIKKYYDGWLICEEPTCRNRTRHLPLQFSRTGPLCPACMKATLQPEYSDKSLYTQLCFYRYIFDAECALEKLTTDHEKDKLKKQFFTPKVLQDYRKLKNTAEQFLSRSGYSEVNLSKLFAGCAVKS [POLA1] | -0.107 | 49 °C | 50.1 °C | -0.19 | 1.03 | 3.37 |
| MVGVKPVGSDPDFQPELSGAGSRLAVVKFTMRGCGPCLRIAPAFSSMSNKYPQAVFLEVDVHQCQGTAATNNISATPTFLFFRNKVRIDQYQGADAVGLEEKIKQHLENDPGSNEDTDIPKGYMDLMPFINKAGCECLNESDEHGFDNCLRKDTTFLESDCDEQLLITVAFNQPVKLYSMKFQGPDNGQGPKYVKIFINLPRSMDFEEAERSEPTQALELTEDDIKEDGIVPLRYVKFQNVNSVTIFVQSNQGEEETTRISYFTFIGTPVQATNMNDFKRVVGKKGESH [TXNL1] | -0.112 | 50.1 °C | 50.2 °C | 0.258 | -0.465 | -0.0973 |
| MSKSESPKEPEQLRKLFIGGLSFETTDESLRSHFEQWGTLTDCVVMRDPNTKRSRGFGFVTYATVEEVDAAMNARPHKVDGRVVEPKRAVSREDSQRPGAHLTVKKIFVGGIKEDTEEHHLRDYFEQYGKIEVIEIMTDRGSGKKRGFAFVTFDDHDSVDKIVIQKYHTVNGHNCEVRKALSKQEMASASSSQRGRSGSGNFGGGRGGGFGGNDNFGRGGNFSGRGGFGGSRGGGGYGGSGDGYNGFGNDGGYGGGGPGYSGGSRGYGSGGQGYGNQGSGYGGSGSYDSYNNGGGGGFGGGSGSNFGGGGSYNDFGNYNNQSSNFGPMKGGNFGGRSSGPYGGGGQYFAKPRNQGGYGGSSSSSSYGSGRRF [HNRNPA1] | 0.275 | 49.4 °C | 50.1 °C | -0.184 | -0.92 | 1.18 |
